{"source": "the DeepSol protein solubility set"}
{"assay": "soluble on expression in E. coli; label from the status in PepcDB or PDB records"}
{"sequence": "MSLELVSFVKSHIDQAVYFSTITSNPIEFNLPESLSLDTTDIENDIKTSCDEIFYSTGSYIPPMLNTLEQHLNLRIEYFNNLIEFTKINFNYKISPTVKLYLIEKISILKCCLALFKYISDKAILSNIWRDLVLNSFNDSSLEEFVLGKLDEFPRLFTIFLNDLSAKIVGFNDVEEKVKIVDLLITCVYDAVLENCEKSIRYDALQLDPLELDNKPMWFTNLTNIKAMNNIFFSFIFPDNDLSVENKQRLLTVVKLLYYVINQNMIWHKSMKQIETEEYKEVEALYNDNHANWIHVLCNIGVHEEALQICEFYHDLGGLVEILEKLDFEISRELYDQYFKMFGYEFATILFEYYINAKDLKALFFKFPNHHDLLNKFLLSSPPKYYKYAWIQEIIDNDYRKASDILTTLSVGEAGDGCEISERQLHLNIAKLSGLVDENFDANQMIEIQRDIDTIDHQTRIKKLLEEDPTGISMNQAFANNEFGEKFQETKYCIQNDKSINIKYIIDMLSMMDSVENLYEALKLTCIYRHSLGYEVSKYFQQSIWRRCIIEESKDGVIQLEGENSKIYQLLVKYFEGKLYEYDCKLPFVSFLMDRIGISMNFLSIIYGNDNNVLVSISDSIEREYHDLIRIGDTLESQLSTIIGSANEGHHHHHH", "soluble on expression in E. coli": "not soluble"}
{"sequence": "GSQQGKFDTKGIESTDEAKMSFLVTLNNVEVCSENISTLKKTLESDCTKLFSQGIGGEQAQAKFDSCLSDLAAVSNKFRDLLQEGLTELNSTAIKPQVQPWINSFFSVSHNIEEEEFNDYEANDPWVQQFILNLEQQMAEFKASLSPVIYDSLTGLMTSLVAVELEKVVLKSTFNRLGGLQFDKELRSLIAYLTTVTTWTIRDKFARLSQMATILNLERVTEILDYWGPNSGPLTWRLTPAEVRQVLALRIDFRSEDIKRLRL", "soluble on expression in E. coli": "soluble"}
{"sequence": "HHHHHHKVDLGGFAGLFDLKAAGFKDPLLASGTDGVGTKLKIAQLCNKHDTIGQDLVAMCVNDILAQGAEPLFFLDYFSCGKLDLSVTEAVVAGIAKACGKAGCALLGGETAEMPDMYPPGEYDLAGFAVGAMERDQKLPHLERITEGDVVVGIASSGLHSNGFSLVRKIVAKSSLQYSSPAPDGCGDQTLGDLLLTPTRIYSHSLLPVLRSGHVKAFAHITGGGLLENIPRVLPEKLGVDLDAQTWRIPRVFSWLQQEGHLSEEEMARTFNCGVGAVLVVSKEQTEQILRGIQQHKEEAWVIGSVVARAEGSPRVKVKNLIESMQINGSVLKN", "soluble on expression in E. coli": "soluble"}
{"sequence": "MSLNPASPFATLTDRIDWQKVDGLVPAIVQDFQSSQVLMMGYMNPEALQKTLDTQQVTFFSRSKQRLWTKGETSGHVLQLKNIALDCDQDTLLVKVNPIGPTCHTGTVTCWDGDAQEESQMVWLHQLEQLLAERKNADPSSSYTASLYARGTKRIAQKVGEEGVEVALAATAGDKEELICESADLMYHLLVLLQEQGLAMNDVINKLKERHKEGHHHHHH", "soluble on expression in E. coli": "soluble"}
{"sequence": "MGSDKIHHHHHHMTNAFKGIPEELLKPHASPCVSIFMPTSRTFPDNTQDPVRFKNLVSRAEADGIAFSTKREMAPLIERLRLLQDDASFWNHTLDGLAVFISPDYFRIFRLQQSVLEQAHVTDAFYIRPLIRIYQIVERFQVLALTRSEVKLYEGTRDHLDEIELAPEVPKTMTDALGTEITPPHMTIASYGGTGTAMRHGHSSRKDEEALDNERFFRAVDQGINEYHSSSSGLPLVLVALPEHQGLFRSISRNQRLVAEGIEIDPAALGLEAMRQKAWQVMEPYRERKIDQMIARFREAEGGKLGSDNPYAIAIAAVAGNVSHLLLDGQKFWPGQIDPVSGDILLDEASQASGRDVFEELGAAVLARGGEVLVLPSERMPSASGVAAIFRHD", "soluble on expression in E. coli": "not soluble"}
{"sequence": "MGSDKIHHHHHHDNAGRVVEITSAPERVVSLSPAATRFLVFLGLEDKIVGVTDYDSYEAEKVGAMVPVNIEKVVSLNPDLVLMFGGFQLPEVPKLEKAGLKVLVVNPNSLNDIIRDVVLLGTIFDRRDLALEKSEKLREKMLEIGKKTYNVPPSKRPKVLYLISSPGPDVKEIWTCGMGSYLNEIISLAGGVNIASGIAGPNGWPQLSIEYVVSQNPDVIIVGVYIPGTENEEIKKILNFEPFKEINAVKNKRVFAVDGNVASQPSPDVFELLDLFYEFFYGGKGE", "soluble on expression in E. coli": "not soluble"}
{"sequence": "PNSKLARFHASSGTTGKPTVVGYTHKDIDNWAESLARALTSVGVGKEDILQVSYGYGLFTGGLGAHYGSEKVGATVLPTSSGNTERQLELMKDLGTTSIACTPSYFLYMIETARKEGINIRNDTKLRKGFFGAEPWSEELKRRIEEESGIKAYDIYGTSELSGPLFTECDEQ", "soluble on expression in E. coli": "not soluble"}
{"sequence": "MNEDMEFFNRFSHMYLHGFKNLSDMFAEPATEHGITLDEFYILYDIAEAKGKIRLMDIAESHGVTRSAISRLIGRLLRKDYLYQEAEDHDRRNKVLKLTPEGARIEHEVFTELIQRNREWRQSFSLAKQYQTLNLVEEFMDKFVNEDASKQTKKATYADTDLKRAEA", "soluble on expression in E. coli": "not soluble"}
{"sequence": "KIRDELRAERTFIDQALDSLADIFYVIDSAGTVQRCNEQFATLAGYADEKISDLDALSLFPEEEREGVSEAIEEALTTGQSTIEAEFRTAAGKRVPHEFTADRLTDQDGDLIGLVGTGRDIS", "soluble on expression in E. coli": "not soluble"}
{"sequence": "MSLKTKYIFVTGGVVSSLGKGITAASLGRLLKNRGLKVSIQKFDPYINVDPGTMSPYQHGEVFVTDDGAETDLDLGHYERFIDENLSKNSNVTTGKVYWSVINKERRGDYLGGTVQVIPHITNELKERVYRVAKEKDVDVVITEIGGTVGDIESLPFLEAIRQIKYEVGFGNSCFIHVTLLPYLRKAGEIKTKPTQHSVKELRGIGIQPDIIVCRTEKEISKDVRSKIGLFCNIDGDSVISNLDAENLYEVPLMLHDQGLDSLVCKKLELECQEVDNSEWESMVKNIKSLSGEVTIGLVGKYVELHDAYISVVESLNHGGFANNVSVNVKWINSEEVTKDNVDSVLSDVDGILVPGGFGDRGIEGKIEAIRWARENKIPFFGICLGMQCAVIEYARNVLGLEGAHSSEIDPQTKYPVIDLMPDQKDIDDKGGTMRLGLYACKLSKDTNAYDAYEEEVIYERHRHRYEFNNEFRKRLTEEGLILAGTSPDDRLVEIVEIKDHPWFVGVQFHPEFKSRPNRPHALFRDFIKVACTVKEKEGHHHHHH", "soluble on expression in E. coli": "soluble"}
{"sequence": "MSLNHTAVNTAQAIILRDLVDALLFEDIAGIVSNSEITKENGQTLLIYERETQQIKIPVYFSALNMFRYESSQPITIEGRVSKQPLTAAEFWQTIANMNCDLSHEWEVARVEEGLTTAATQLAKQLSELDLASHPFVMSEQFASLKDRPFHPLAKEKRGLREADYQVYQAELNQSFPLMVAAVKKTHMIHGDTANIDELENLTVPIKEQATDMLNDQGLSIDDYVLFPVHPWQYQHILPNVFAKEISEKLVVLLPLKFGDYLSSSSMRSLIDIGAPYNHVKVPFAMQSLGALRLTPTRYMKNGEQAEQLLRQLIEKDEALAKYVMVCDETAWWSYMGQDNDIFKDQLGHLTVQLRKYPEVLAKNDTQQLVSMAALAANDRTLYQMICGKDNISKNDVMTLFEDIAQVFLKVTLSFMQYGALPELHGQNILLSFEDGRVQKCVLRDHDTVRIYKPWLTAHQLSLPKYVVREDTPNTLINEDLETFFAYFQTLAVSVNLYAIIDAIQDLFGVSEHELMSLLKQILKNEVATISWVTTDQLAVRHILFDKQTWPFKQILLPLLYQRDSGGGSMPSGLTTVPNPMVTYDEGHHHHHH", "soluble on expression in E. coli": "soluble"}
{"sequence": "MPDGQRVTKRSEDSRYFTVQPADTPGMANAQGYLPAHDAAGFDKRLDAIAATVCPNDPRTPDQRRADALGALGRYRDTLDCQCGREDCTAVAERDAVNNAMIHVLAEQSTLDGGNEPGYLPGFGMLPAHMVREVAKTATTKPVTIPKDKAQSGYRPNAELTEFIRWRDLTCRFPGCDAPAMAADIDHTRPLEHHHHHH", "soluble on expression in E. coli": "soluble"}
{"sequence": "MGRKKGLPEFEESAPDGFDPENPYKDPVAMVEMREHIVREKWIQIEKAKILREKVKWCYRVEGVNHYQKCRHLVQQYLDSTRGVGWGKDHRPISLHGPKPEAVEAE", "soluble on expression in E. coli": "not soluble"}
{"sequence": "MKGDRLKANVLAVRLIPNVDSDMAKELGLPNEHRSIGILTADCDDVTYTALDEATKKAVVDVAYGKSFYGGAANANTKLAGEVIGILSGPTPAEVKSGLAAAVDFIENEAAFISANDDDSIAYFAHCISRTGTYLSKTAGIPEGESLAYLIAPPLEAMYALDVALKAADVRLVAFYGPPSETNFGGGLLTGSQSACKAACDAFAEAVKFVADNPLNY", "soluble on expression in E. coli": "soluble"}
{"sequence": "MAHHHHHHMTVKVASEVSLLPYGEHQGSFRGVVACSNRDDGYFSGENNYVDTSIYTGFRYQCVEYARRFLLLTTGCVFANCGRASEIYAMDHITHVETGAQYTLHRHHNDGTATQKPAPGDIIIYPYHPELTPWGHVGVISFVDDNRVGIAEQNHYFGPFTSPSESYLDGERCVARYAMLTLDEATKTWRIDEPGAMPSAVGWLSYPDAPTREQIHAPFTPLPCAIKVRSTPFDQDDHPFLTHYHLHKIFDIPSGCVRHAYGMRNGTAETLVGATSAAARVLRFTLHLLFHRGRLGPAFRALPTNPLNATLPEGAGASTEACREVDALFKVLAEEDVVNATETTPDRLRQAVATYFDIPVEWVMAMERDFAKGETHMAAVVSFYPNIATDSAALEAFRAARKRSGTWAAPAVGTVPLTTAKASTPVAEEPLTLSYPATVEELPLKNPHDEAWHLATVNFGNARVMTELSQLNKVKQDLTETIALMTPSMRPFISTQYRMDFAGYLKVVEAVYGPRTGFTIVVSDDQPMDGLLRELVSTVQNLCEHVEYPVRIVNEKDLTFVNGKLHATPSAISPEAGSHMTNIAPSGAYDVNFVYALCEWPRILACREATHAALYRAAVDPASDVVFAKPLWSYLCSGAVNVSDDAERAHYSHSPRSPSVRFFDVCRRLYLLASPTQQPKTWDLEVSEYKDSCRRIHVDAETVPMHSPAHLNADSLMINLAGSCYMGHAGGTLSVESENTGIHVGHPAFLMFMFPAD", "soluble on expression in E. coli": "not soluble"}
{"sequence": "MKIAIVGAGIGGLTAAALLCEQGHEVKVFEKNSTITEVGAGIGIGGNVIDKLGKHDLAKGIKNIGQVINVMEILDDKDNVLSKAKLKKNTVNLTMTRQSLIDVIKSYVSESAIYTNHHVTHVDNNALKVVMHFEAQEAEAFDLCIGADGLHSNIRHTVAPNSKTQYQGYTVFRGLVEDIDIKSDNVAKEYWSAKGRVGVVPLLNNQAYWFISINAKENDATMQSYGKPHLQARFNHFPNEVRKVLDKQSETDILLHDIYDLQPLKTFVYQRVILLGDAAHATTPNMGQGAGQAMEDAIVLANCLQAYPFEAALQRYDKIRVDHTKKVIKRSRKIGKLAQRSNKIVISLRNSIAKIMPNRLVAAQTKFIYKSKNKLEHHHHHH", "soluble on expression in E. coli": "soluble"}
{"sequence": "GSKEKLKEIKLLVCNIDGCLTNGHIYVSGDQKEIISYDVKDAIGISLLKKSGIEVRLISERACSKQTLSALKLDCKTEVSVSDKLATVDEWRKEMGLCWKEVAYLGNEVSDEECLKRVGLSAVPADACSGAQKAVGYICKCSGGRGAIREFAEHIFLLIEKVNNSCQK", "soluble on expression in E. coli": "soluble"}
{"sequence": "MGSDKIHHHHHHMFSISHPGDFESLKIIVNEINKLRKINKKLKKESFEVYVGFPEFVGTGRATLYKPNFEDLAKQVNYAKKHNVRFEVVINASCIGGMHLTPKGISYINWIFSQLKNIGVDSVALSDPYLVDLAKNNGLEVNVSCIALVDSLDKALFWDEKEVYAITLDSSINRHFDIIQEIRENVSCKLKILVNEACLYKCPMRIQHFNFFSHANAQNIPALDDYYYNKCINLRIKKKELIIKSPFIRPEDLKYYKGLVDIFKISGRSHPIGWIKRVINAYLNERWDGNLMELLDCPRELEHFYYLDNRALDGAIEYWKSCNKLCSKCNFCKELAEKALKVKY", "soluble on expression in E. coli": "not soluble"}
{"sequence": "MAMTLVRRDARPMELTPFRTWSPFTLVDEVNRLFEEAFSDLVRPAAAYVAPADLYETDEALILEMAVPGMTPEDLEVSLEGNKLTIRGQVKPVADERVRRYYLQEMAHGSFVRTFTLPVEVDASGVKAEFRNGILRLTLPKVAEARARRIPIEVVQ", "soluble on expression in E. coli": "soluble"}
{"sequence": "SLWQPQTGDIIFQISRSSQSKAIQLATHSDYSHTGMLVMRNKKPYVFEAVGPVKYTPLKQWIAHGEKGKYVVRRVEGGLSVEQQQKLAQTAKRYLGKPYDFSFSWSDDRQYCSEVVWKVYQNALGMRVGEQQKLKEFDLSNPLVQAKLKERYGKNIPLEETVVSPQAVFDAPQLTTVAKEWPLFSW", "soluble on expression in E. coli": "soluble"}
